The source of these data is the nanobody polyreactivity screen of Harvey et al. (2022).

This data set is described as follows: yeast display, Sf9 membrane polyspecificity reagent, FACS + sequencing; frameworks hold sequencing errors. In a few lines: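 Nanobodies from a synthetic yeast display library (Saccharomyces cerevisiae BJ5465), induced 36–48 hours with galactose, were stained 1 hour at 4 °C with 10% biotinylated, detergent-solubilized Sf9 membrane reagent, enriched on streptavidin microbeads, then FACS-sorted. Anti-HA (expression) and streptavidin (reagent binding) fluorescence set low and high (top ~1%) gates. Polyreactivity labels come from the gate of origin. Genes were colony-PCR amplified, MiSeq 2 × 250 sequenced and filtered by CDR length.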
On to “QVQLEESGGGLVQAGGSLRLSCAASGFTFTDYAMGWYRQAPGKERELVAVITYDSTYYADSVKGRFTISRDNAKNTVYLQMNSLKPEDTAVYYCAADSYDWGDFDYWGQGTQVTVSS”, for which the “polyreactivity (PSR sort gate)” value was “low polyreactivity”.

Turning to “QVQIVESGGGLVQAGGSLRISCAASGRTFSWNPMGWYRQAPGKERELVAGITGRGRSTYYADSVKGRFTISRDNAKLTVYLQMNSLTPEDTAVYYCAADSYRSSSPYGYWGQGTQVTVSS”, the “polyreactivity (PSR sort gate)” value is “high polyreactivity”.

For the sequence “QVQLVESGGGLVQAGGSLRLSCAASGLTFYHYDMGWYRQAPGIETELVAAITNGGSTYYADSVKGRFTISRDNAKNTVYLQMNSLKPEDTAVYYCAADGSGYYDWYYYWGQVTQVTVSS”, the “polyreactivity (PSR sort gate)” value is reported as “low polyreactivity”.

Turning to “QVQLVESAGGLVQAVGSLRLSCDASGSTFSGNDMGWYRQAPGKERELVAAITSSGGSTYYADSVKGRFTISRDNAKNTVYLQMNSLKPEDTAVYYCAAKSRRTRRSYYWGQGTQVTVSS”, the “polyreactivity (PSR sort gate)” value is reported as “high polyreactivity”.

As for “QVQLVESGGGLVQAGGSLRLSCAASGITFRTNTMGWYRQAPGKERELVAAISRGGTSTYYADSVKGRFTISRDNAKNTVYLQMNSLKPEDTAVYYCAADTRFYSGRGTVSGDYWGQGTQVTVSS”, the “polyreactivity (PSR sort gate)” value is reported as “low polyreactivity”.

“QVQLVETGGGVVQAGGSLRLSCAASGRTFGFNAMGWYIQAPGKERELVASITSTGGRTYYADSVKGLFTISRDNAKNTVYLQMNCLKPEDTAVYYCAAGSRSRAPYYRTIVDTYGYWGQGTQVTVSS”: the “polyreactivity (PSR sort gate)” value is “low polyreactivity”.

For the sequence “QVQLVESGGGLVQAGGTLRLSSAASGFTFGNYAMGWYRQAPGKERELVAAISGRSGRTYYADSVKGRFTISRDNAKNTVYLQMISLKPEVTAVYYCAKKVFGWEYYYWGQGTQVTVSS”, the “polyreactivity (PSR sort gate)” value was “high polyreactivity”.

For the sequence “QVQLVESGGGLVQAGGSLRLSCAASGFIFRNYAMGWYRQAPGKERELVAAITRSGTSTYYADSVKGRFTISRDNAKNTVYLQMNSLKPEDTAVYYCAARAWSSRRRLMYYWGQGTQVTVSS”, the “polyreactivity (PSR sort gate)” value is listed as “high polyreactivity”.

For “QVQLVESGGGLVQAGGSLRLSCAASGFTNSMGWSTQAHGKERELVAAISYSGDSTNYADSVKGRFTISRDNAKNTVYLQMNSLKPEDTAVYYCNASSPYDYDWGQGTQVTVSS”, the “polyreactivity (PSR sort gate)” value is “low polyreactivity”.

“QVQLVESGGGLVQAGGSLRLSCAASGRTFVRYAMGWYRQAPGKEREFVAAITGSGGITYYADSVKGRFTISRDNAKNTVYLQMNSLKPEDTAVYYCAARGGFGRYWYDYWGQGTQVTVSS”: the “polyreactivity (PSR sort gate)” value is “high polyreactivity”.

Consider “QVQLVESGGGLVQAGGSLRLSCAASGLIFLYAMGWYRQAPGKERELVAAISNGGSTYYADSVKGRFTISRDNAKNTVYLQMYSLKPEDTAVYYCAVYYPGKYGYWGQGTQVTVSS”, for which the “polyreactivity (PSR sort gate)” value is recorded as “high polyreactivity”.

Regarding “QVQLVESGGGLVQAGGSHRLSCAASGRIFAYNAMGWYRQAPGKERELVAAISSGGNTYYADSVKGRFTISRDNAKNTVYLQMNSLTPEDTAVYYCNAGVGWHRYYSNYDYWGQGTQVTVSS”, the “polyreactivity (PSR sort gate)” value was “low polyreactivity”.

In the case of “QVQLVESGGGLVQAGGSLRLSCAASGSIFVDYAMGWYRQAPGKERELVASISGGGSSTYYADSVMGRFTISRDNAKNTVYLQMNSLKPEDTALYYCARDGVRSSSEYDYWGQGTQVTVSS”, the “polyreactivity (PSR sort gate)” value is given as “low polyreactivity”.

Consider “QVQLVESRGGLVQAGGSLRLSCAASGRIFNAYAMGWYRQAPGKERELVAAITVSGTRTYYADSVKGRFTISRDNAKNTVYLQMNSLKPEDTAVYYCAAEVVNYWYSYDYWGQGTQVTVSS”, for which the “polyreactivity (PSR sort gate)” value is reported as “high polyreactivity”.

For the sequence “QVQLVESGGGLVQAGGSLRLSCAASGRIFGYYAMGWYRQAPGKERELVAAINSGSRTYYADSVKGRFTISRDNAKNTVYLQMNSLKPEDTAVYYCAARVRYPPYRSSDGQRGGYWGQGTQVTVSS”, the “polyreactivity (PSR sort gate)” value was “high polyreactivity”.

“QVKLVESGRGLVQAGCSLRITCAASGGTLDNNAMGRYRQAPGKERELVAAISSSGSRTYYADSVKGRFTISRDHAKNSVYLQMNSLKPEDTAVYYCAARRYVRRYYWGQGTQVTVSS”: the “polyreactivity (PSR sort gate)” value is on record as “high polyreactivity”.

Turning to “QVQLVESGGGLVQAGGSLRLSCAASGFIFATYAMGWYRQAPGKERELVASINWSGGRTYYADSVKGRFTISRDNAKNTVYFQMNSLKPEDTEVYYCAARISTRYEYWGHGTQVTVSS”, the “polyreactivity (PSR sort gate)” value is given as “high polyreactivity”.

“QVQLVESGGGLVQAGGSLRLSCAASGITFSRYAMGWYRQAPGKERELVAAITWDGGRTYYADSVKGRFTISRDNAKNTVYLQMNSLKPEDTAVYYCAASRYSPVRWVWLYYWGQGTQVTVSS”: the “polyreactivity (PSR sort gate)” value was “high polyreactivity”.

Take “QVQLVESGGGLVQAGGSHRLSCAASGRTFWYYTMGWYRQAPGKERELVAAINWRGGTTYYADSVKGRFTISRDNAMNTVYLQMNSLKPEDTAVYYCAATHWAYSRVPYDYWGQGTQVTVSS”: the “polyreactivity (PSR sort gate)” value is recorded as “high polyreactivity”.

“QVQLVESGGGLVQSGGSLRLSCAAYGNFFANNSMGWYRQAPGKERELVAAISQSGGNTYYADSVKGRFTISRDNAKNTVYLQMNSLKPEDTADYYCNAKTYGYNYDSWGQGTQVTVSS”: the “polyreactivity (PSR sort gate)” value was “low polyreactivity”.

Take “QVQLVESGGGLVQAGGSLRLSCAASGSTFFYYAMGWSRQEPGKERELVASISSRGGSTYYADSVKGRFTISRDNAKNTVYLQMYSLKPEDTAVYYCAADLWAYGPLWRWSRADYDYWGQGTQVTVSS”: the “polyreactivity (PSR sort gate)” value is given as “low polyreactivity”.

Regarding “QVQLVESGGGLVQAGGSLRLSCAASGIIFYGYVMGWYRQAPGKERELVAAISKSGGSTYYADSVKGRFTISRDIAKNTVYLQMNSLIPEDTAVYYCAAERKSFYRYNYWGQGTQVSVSS”, the “polyreactivity (PSR sort gate)” value is reported as “high polyreactivity”.

In the case of “QVQLVESGGGLVQAGGSLRLSCAASGRTFVQNAMGWYRQAPGKERELVASIRYRDGSTYYADSVKGRFTISRDNAKNTVYLQMNSLKREDTAVYYCAVRIGARGRGGKDRVYYWGQGTQVTVSS”, the “polyreactivity (PSR sort gate)” value is listed as “high polyreactivity”.

Consider “QVQLVESGGGLVQAGGSLRLSCAASGSTFNPYAMGWYRQAPGKERELLAAITWSSDDTYYADSVKGRFTISRDNAKNTVYLQMNSLKPEDTAVYYCAADVIGDLRWYGDEYWGQGTQVTESS”, for which the “polyreactivity (PSR sort gate)” value is “low polyreactivity”.

“QVQLVESGGGLVQAGGSLRVSCAASGIIFYGYAMGWYRQAPGKEMELVAVITSGGSTNYADSVKGRFTISRDNAKNTVYLQMNSLKPEDTAVYYCAAKYHYFGFRYDYWGQGTQVTVSS”: the “polyreactivity (PSR sort gate)” value was “high polyreactivity”.

On to “QVQLVESGGGLVQAGGSLRLSCAASGFIFRYYAMGWYRQAPGKERELVAAISASGVSTYYADSVKGRFTISRDNAKNTVYLQMNSLKPEDTAVYYCNKVTRGGYDYWGQGSQVTVSS”, for which the “polyreactivity (PSR sort gate)” value was “high polyreactivity”.

As to “QVQLVESGGGLVQAGGSLRLSCAASGSIFRRYAMGWYRQAPGKERELVAAIDSSGGTSYADSVKGRFTISRDNAKNTVYLQMNILKPEDTAVYYCATSFSWKGRKYGYWGQGTQVTVSS”, the “polyreactivity (PSR sort gate)” value was “high polyreactivity”.

Regarding “QVQLVESGGGLVQAGGSLRLSCAASGRTFWNYAMGWYRQAPGKERELVAVIRFSDGSTYYADSVKGRFTISRDNAKNTVYLQMNSLKPEDTAVYYCAAKGPRRWGSGFDYWGQATQVTVSS”, the “polyreactivity (PSR sort gate)” value is given as “low polyreactivity”.

Consider “QVQLVESGGALVQAGGSLRLSCAASGITFWKYTMGWYRQAPGKERELVASIRIGGSTYYADSVKGRFTISRDNAKNTVYLQMNSLKPEDTAVYYCATDSRLWGQGTQVTVSS”, for which the “polyreactivity (PSR sort gate)” value was “high polyreactivity”.

“QVQLVESGGGLVQAGGSLRLSCAASGITVDYYVMGWYRQAPGKERELVASIDSGGRTKYADSVKGRFTISRDNAKNTVYLQMNILKPEDTAVYYCAARSYVFRSRWIRWPKYWGQGTQVTVSS”: the “polyreactivity (PSR sort gate)” value is given as “high polyreactivity”.

On to “QVQLVESGGGLVQAGGSLRLSCAASGFTFISNAMGWYRQAPGKERELVAAISSSGGRTYYADSVKGRFTISRDNAKNTVYLQMNRLKPEDTAVYYCNADRSLLYSRKIEYDYWGQGTQVTVSS”, for which the “polyreactivity (PSR sort gate)” value is “low polyreactivity”.

As to “QVQLVESGGRLVQAGGSLRLSCAASGSTFVCYAMGWYRQAPGKERELVAAISSGGRTHYADSVMARFTISRDNAKNTVILQMNSLKREDTAFYYCNAAYYILRFRYDYWGQGTQVTVSS”, the “polyreactivity (PSR sort gate)” value was “high polyreactivity”.

With “QVQLVESGGGLVQAGGSLRLSCAASGRTLKWYAMGWYRQAPGKERELVAAISWSGGSTYYADSVKGRFTISRDNAKNTVYLQMNSLKPEDTAVYYCAVAVTSYSSKKLYYWGQGTQVTVSS”, the “polyreactivity (PSR sort gate)” value was “low polyreactivity”.

As to “QDQLVESGGGLVQAGGRLRLSCAASGFIFWLYAMGWYRQAPGKERELVASINWSGGDTYYADSVKGRFTISRDNAKNTVYLQMNSLKPEDTAVYYCAADWSNLGAYDYWGQGTQVTVSS”, the “polyreactivity (PSR sort gate)” value is “low polyreactivity”.

As to “QFQLVESGGGLVQAGGSLRLSCAASGSTFGYYAMGWYRQAPGKERELVAAISWSGDSTYYADSVKGRFSISRDNAKNTVYLQMNSLKPEDTAVYYCAAEVEYGYDYWGQGTQVTVSS”, the “polyreactivity (PSR sort gate)” value is on record as “high polyreactivity”.

As for “QVQLVESGGGLVQAGGSLRLSCAASGLIFPPNVMGWYRQAPGKDRELVAAITSSGSTNYADSVTGRFTISRDNAKNTVYLQMNSLKPEDTAVYYCARDQTWSYQPWYYLSYTQYEYWGQGNQVTVSS”, the “polyreactivity (PSR sort gate)” value is recorded as “low polyreactivity”.

Regarding “QVQLVESGGGLVQAGGSLRLSCAASGNIFNEYARGWYSQAPGKESELVAAITWSAGSTYYADSVKGRFTISRDNAKNTVYLQMNSVKPEDTGVYYCNTQEKANTQHYYWGQGTQVTVSS”, the “polyreactivity (PSR sort gate)” value is on record as “low polyreactivity”.

Turning to “QVQLVESGGGLVQAGGSLRLSCAASGLTFQYYTMGWYRQAPGKERELVAAINWSGGSTYYADSVKGRFTISRDNAKNTVYLQMNSLKPVDTAVYYCNAVRFVEHDYWGQGTQVTVSS”, the “polyreactivity (PSR sort gate)” value is given as “high polyreactivity”.

Regarding “QVQLVESGGGLVQAGGSLRLSCAASGSIFDVNAMGWYRQAPGKERELVAAISQRGTRTYYADSVKGRFTISRDNAKNTVYLQMNSLKPEDTAVYYCNRGGWRQYDSWGQGTQVTVSS”, the “polyreactivity (PSR sort gate)” value is listed as “high polyreactivity”.

For the sequence “QVQLVESGRGLVQAGGRLRLSCAASGRTFSRNAMGRYRQAPGKERELVAAISFRGVSTYYADSEKGRFTISRDNAKNTVYLQLNSLKPEDTAVYYCARRYTSKGGYDYWGQGTQVTVSS”, the “polyreactivity (PSR sort gate)” value is “high polyreactivity”.

“QVQLVESGGGLVQAGGSLRLSCAASGLTFGDYVMGWYRQAPGKERELVATITSDGGTTYADSVKGRFTISRDNAKNTVYLQMNSLKPEVTAVYYCYADAVVDNYVGFSAAGFDYWGQGTQVTVSS”: the “polyreactivity (PSR sort gate)” value is on record as “low polyreactivity”.
